1 molecule from patent US20160097044A1, “Antimicrobial Enzyme Fusions Reduce Resistance and Kill Intracellular Staphylococcus aureus” (The United States of America, as Represented by the …, priority 2014, published 2016) can be followed below.

The test system of experiment [1] is N315 (NRS 70). As to the kind of experiment: Minimum Inhibitory Concentration (MIC) assay. It counts as cell-based, S. aureus. On the procedure:
(§1) The Minimum Inhibitory Concentrations (MIC) of each protein for multiple S. aureus strains was determined as previously described (Jones et al. 1985. In: Manual of Clinical Microbiology, Eds. Balows et al. American Society of Microbiology, Washington D.C., pp. 972-977) with the following modifications. Enzymes were serially diluted two fold across a 96 well plate, such that after dilution, 50 μl of the enzyme solution in 300 mM NaCl, 50 mM NaH2PO4, 30% glycerol pH 7.5, remained in each well. To each well was added 50 μl of TSB and 100 μl of S. aureus Newman in TSB (diluted to 5×10^6 cells/ml). The plates were incubated 20 h at 37° C. and read with a 96 well plate reader. MIC determination values were reported as the median of ≧4 replicates (Table 1).

For experiment [2], the system named is NRS 192. Description: Minimum Inhibitory Concentration (MIC) assay. It counts as cell-based, S. aureus. How it is done:
as §1

The test system of experiment [3] is NRS 193. As to the kind of experiment: Minimum Inhibitory Concentration (MIC) assay. It counts as cell-based, S. aureus. On the procedure: as §1
Experiment [4] concerns NRS 194. Description: Minimum Inhibitory Concentration (MIC) assay. It counts as cell-based, S. aureus. On the procedure: as §1
The subject of experiment [5] is NRS 209. As to the kind of experiment: Minimum Inhibitory Concentration (MIC) assay. It counts as cell-based, S. aureus. On the procedure: as §1
Experiment [6] relates to NRS 271. Description: Minimum Inhibitory Concentration (MIC) assay. It counts as cell-based, S. aureus. How it is done: as §1
In experiment [7] the test system is Sanger 252 (NRS 71). As to the kind of experiment: Minimum Inhibitory Concentration (MIC) assay. It counts as cell-based, S. aureus. On the procedure:
as §1

Experiment [8] has as its system USA 100 (NRS 382). Description: Minimum Inhibitory Concentration (MIC) assay. It counts as cell-based, S. aureus. How it is done:
as §1

Experiment [9] concerns USA 200 (NRS 383). Description: Minimum Inhibitory Concentration (MIC) assay. It counts as cell-based, S. aureus. How it is done: as §1
Experiment [10] relates to USA 300 (NRS 384). As to the kind of experiment: Minimum Inhibitory Concentration (MIC) assay. It counts as cell-based, S. aureus. On the procedure: as §1
The test system of experiment [11] is USA 400 (NRS 123). As to the kind of experiment: Minimum Inhibitory Concentration (MIC) assay. It counts as cell-based, S. aureus. On the procedure:
as §1

In experiment [12] the test system is USA 500 (NRS 385). Description: Minimum Inhibitory Concentration (MIC) assay. It counts as cell-based, S. aureus. On the procedure: as §1
For experiment [13], the system named is USA 600 (NRS 22). Description: Minimum Inhibitory Concentration (MIC) assay. It counts as cell-based, S. aureus. On the procedure: as §1
The subject of experiment [14] is S. simulans MP03. As to the kind of experiment: Minimum Inhibitory Concentration (MIC) assay. It counts as cell-based, Staphylococcus simulans. As to conditions: Mastitis isolate S. simulans MP03.
The subject of experiment [15] is S. aureus strain ALR. Description: Rat nasal colonization model. It counts as in vivo, Wistar rats. The text has this:
FIGS. 1a-1c depict peptidoglycan hydrolase construct schematics, resistance development and effectiveness in eradicating S. aureus carriage in a rat colonization model. FIG. 1a is a schematic of the peptidoglycan hydrolase constructs. Domains: CHAP endopeptidase (CHAP, red box); N-acetylmuramoyl-L-alanine amidase (AMID, green box); M23 endopeptidase (PEP, blue oval); CBDs (LysK SH3b, gold diamond; lysostaphin SH3b, gold diamond with dot); protein transduction domain (PTD, blue circle); hexahistidine purification tag (His6). Domains are not to scale. Specific peptidoglycan cut sites are illustrated in FIG. 3a. FIG. 1b depicts in vitro antimicrobial resistance development. Engineered triple fusions K-L and L-K suppress antimicrobial resistance development compared to LysK (K), lysostaphin (L), or a combination of equimolar concentrations of both (L+K). Changes in Minimum Inhibitory Concentrations (MIC) are depicted as a fold-change at the tenth round of sublethal exposure compared to the first exposure, with the average fold-change of 4 replicates in red. Error bars=SEM. First exposure MICs: Lysostaphin, 0.77 μg/ml (27 nM); LysK, 47 μg/ml (840 nM); Lysostaphin and LysK (L+K) in combination 0.2 μg/ml (7 nM and 3 nM, respectively); triple fusion K-L, 7 μg/ml (97 nM); triple fusion L-K, 7.8 μg/ml (107 nM). FIG. 1c depicts reduction in colonization in a rat nasal carriage model. Rats were inoculated with S. aureus strain ALR on Day 1. After 5 days, the rats were treated twice daily for 3 days with 20 μl of a 10 mg/ml solution of each enzyme. The rat noses were excised on day 10, homogenized, and quantitative cultures were performed. Each point represents the CFU recovered from an individual rat. Bars indicate the median CFU/nose recovered from treated rats. […] Data were compiled from five independent experiments. Lyso=commercially purchased lysostaphin (AMBI, Tarrytown, N.Y.). Statistical comparisons were made with the Mann-Whitney test. SEQ ID NOs of depicted peptidoglycan hydrolase constructs: Lysostaphin (SEQ ID NO:1); Lysostaphin-PTD1-4, 6-12 (SEQ ID NOs:9, 11, 13, 15, 17, 19, 21, 23, 25, 27, 29, respectively); LysK (SEQ ID NO:3); LysK-PTD1-11 (SEQ ID NOs: 31, 33, 35, 37, 39, 41, 43, 45, 47, 49, 51, respectively); LysK-Lysostaphin Fusion K-L (SEQ ID NO:5); K-L-PTD1-4, 6-11 (SEQ ID NOs:53, 55, 57, 59, 61, 63, 65, 67, 69, 71, respectively); Lysostaphin-LysK Fusion L-K (SEQ ID NO:7).
Reduction in nasal colonization was observed when rats were challenged on day 0 with 10^7 CFU S. aureus strain ALR and then treated twice per day on days 5, 6, and 7 with 10 μl of 2% mupirocin calcium ointment (Bactroban Nasal) or petrolatum/softisan placebo. Noses from rats were homogenized and cultured quantitatively on day 10. Each point represents the CFU recovered from an individual rat, and the data were compiled from two independent experiments. Data were analyzed by the Mann-Whitney test, and horizontal lines represent median values. Mupirocin reduced colonization ˜98% compared to the placebo control.
The rat nasal colonization model is an adaptation of the mouse nasal colonization model that we described previously (Schaffer et al. 2006. Infect. Immun. 74:2145-2153). All animal experiments were conducted in accordance with a protocol approved by the appropriate Institutional Animal Care and Use Committees. Wistar rats (5 to 6 wks of age) were obtained from Charles River Laboratories (Wilmington, Mass.) and given food and water ad libitum. The animals were housed two per cage in a modified barrier facility under viral antibody-free conditions. The rats were given drinking water containing streptomycin sulfate (0.5 g/liter; Sigma) 1 day prior to bacterial inoculation and for the course of the experiment. The drinking water and cages were changed three times per week. […]

B1: L-K: LysK lytic domains inserted between lysostaphin's M23 endopeptidase domain and SH3b cell wall binding domain; SEQ ID NO:7, protein SEQ ID NO:8 (protein)
chain: MAATHEHSAQWLNNYKKGYGYGPYPLGINGGMHYGVDFFMNIGTPVKAISSGKIVEAGWSNYGGGNQIGLIENDGVHRQWYMHLSKYNVKVGDYVKAGQIIGWSGSTGYSTAPHLHFQRMVNSFSNSTAQDPMPFLKSAGYGKAGGTVTPTPNTGLDAKTQAEINKRLDAYAKGTVDSPYRVKKATSYDPSFGVMEAGAIDADGYYHAQCQDLITDYVLWLTDNKVRTWGNAKDQIKQSYGTGFKIHENKPSTVPKKGWIAVFTSGSYEQWGHIGIVYDGGNTSTFTILEQNWNGYANKKPTKRVDNYYGLTHFIEIPVKAGTTVKKETAKKSASKTPAPKKKATLKVSKNHINYTMDKRGKKPEGMVIHNDAGRSSGQQYENSLANAGYARYANGIAHYYGSEGYVWEAIDAKNQIAWHTGDGTGANSGNFRFAGIEVCQSMSASDAQFLKNEQAVFQFTAEKFKEWGLTPNRKTVRLHMEFVPTACPHRSMVLHTGFNPVTQGRPSQAIMNKLKDYFIKQIKNYMDKGTSSSTVVKDGKTSSASLDTVTPTPNTGWKTNKYGTLYKSESASFTPNTDIITRTTGPFRSMPQSGVLKAGQTIHYDEVMKQDGHVWVGYTGNSGQRIYLPVRTWNKSTNTLGVLWGTIKLEHHHHHH
modifications: Staphylococcus simulans & Phage K
Take B1: the “Minimum Inhibitory Conc. (median μg/ml)” value in experiment [1] is 16 µg/mL; in [2], 16 µg/mL; in [3], 12 µg/mL; in experiment [4], 12 µg/mL; in experiment [5], 12 µg/mL; in experiment [6], 9.8 µg/mL. The “Minimum Inhibitory Conc. (median μg/ml)” value is 6.8 µg/mL in experiment [7]; 20 µg/mL in experiment [8]; 5.9 µg/mL in [9]; 20 µg/mL in [10]; 16 µg/mL in experiment [11]; 12 µg/mL in experiment [12]. The entries for the “Minimum Inhibitory Conc. (median μg/ml)” value in experiment [13] and in experiment [14] were 6.8 µg/mL and 5.9 µg/mL, respectively. Also, the “decrease in CFU/nose (nasal colonization) compared to rats treated with buffer” value in [15] (200 μg intranasally twice a day on days 5, 6, 7, noses cultured day 10) is 98%. Moreover, the “bacterial load reduction relative to either parental enzyme” value in [15] (rat nasal decolonization model) was 5-10 fold.
